Measured values reported in PMC4081090, “Structure of the N-glycosidase MilB in complex with hydroxymethyl CMP reveals its Arg23 specifically recognizes the substrate and controls its entry” (Nucleic Acids Research, 2014).

B1: N-glycosidase MilB, wild type (enzyme, Streptomyces remofaciens ZJU5119, UniProt B4Y381 1-170, looked up)
chain: MTTTPKPRTAPAVGSVFLGGPFRQLVDPRTGVMSSGDQNVFSRLIEHFESRGTTVYNAHRREAWGAEFLSPAEATRLDHDEIKAADVFVAFPGVPASPGTHVEIGWASGMGKPMVLLLERDEDYAFLVTGLESQANVEILRFSGTEEIVERLDGAVARVLGRAGEPTVIG
notes: MilB, N-glycosidase (CMP/hydroxymethyl CMP hydrolase) of the mildiomycin biosynthesis pathway, Streptomyces remofaciens ZJU5119; the full-length protein consists of 170 residues; residues 12-169 are seen in the crystal model; Cloned into pET28a with an N-terminal 6xHis tag; also called WT MilB; full-length MilB; source: E. coli BL21(DE3), purified (Ni-NTA, Superdex200 gel filtration)
B2: MilB (Streptomyces rimofaciens; R23M) (protein)
chain: MTTTPKPRTAPAVGSVFLGGPFMQLVDPRTGVMSSGDQNVFSRLIEHFESRGTTVYNAHRREAWGAEFLSPAEATRLDHDEIKAADVFVAFPGVPASPGTHVEIGWASGMGKPMVLLLERDEDYAFLVTGLESQANVEILRFSGTEEIVERLDGAVARVLGRAGEPTVIG
notes: full-length (170 residues), N-terminal 6xHis tag (pET28a), E. coli BL21(DE3); dimer; crystal model residues 12-169 / 12-170

Legend:
BlsM = target: T1, BlsM (Streptomyces griseochromogenes, UniProt Q841K1); experiment: HPLC of released 5hmC, Michaelis-Menten fit; assay type: biochemical; settings: 50 mM Tris-HCl, pH 7.2, 37 °C, 30 min
T1 construct: N-terminal 6xHis tag (pET28a), E. coli BL21(DE3)
From the text: HPLC of released 5hmC, Michaelis-Menten fit on BlsM

[1] = target: the molecule itself; experiment: SEC; size exclusion chromatography of MilB in solution (Figure S1); conditions of this run not given
[2] = substrate: Nc1nc(=O)n([C@@H]2O[C@H](COP(=O)(O)O)[C@@H](O)[C@H]2O)cc1CO; experiment: HPLC of released 5hmC, Michaelis-Menten fit; assay type: biochemical, Streptomyces rimofaciens; settings: 50 mM Tris-HCl, pH 7.2, 37 °C, 30 min
From the text: HPLC of released 5hmC, Michaelis-Menten fit on MilB

[3] = substrate: Nc1ccn([C@@H]2O[C@H](COP(=O)(O)O)[C@@H](O)[C@H]2O)c(=O)n1; experiment: HPLC of released cytosine, Michaelis-Menten fit; assay type: biochemical, Streptomyces rimofaciens; settings: 50 mM Tris-HCl, pH 7.2, 37 °C, 30 min
From the text: HPLC of released cytosine, Michaelis-Menten fit on MilB

T1 sequence (Q841K1 entry or part of it): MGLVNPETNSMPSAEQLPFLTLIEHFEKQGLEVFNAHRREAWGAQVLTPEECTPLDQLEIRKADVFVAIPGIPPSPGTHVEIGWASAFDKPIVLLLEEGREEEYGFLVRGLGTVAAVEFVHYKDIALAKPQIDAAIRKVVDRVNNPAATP

Molecule	Km (BlsM)	stoichiometry N [1]	Km [2]	kcat [2]	kcat/Km [2]	Km [3]	kcat [3]	kcat/Km [3]
Nc1nc(=O)n([C@@H]2O[C@H](COP(=O)(O)O)[C@@H](O)[C@H]2O)cc1CO [hmCMP, 5-hydroxymethyl cytidine 5′-monophosphate]	328 µM							
B1		2	71.55 (11.66) μM	0.0531 s⁻¹	743 M⁻¹ s⁻¹			
B2			86.63 (10.67) μM	0.0156 s⁻¹	180 M⁻¹ s⁻¹	1122.00 (100) μM	0.0305 s⁻¹	27.1 M⁻¹ s⁻¹
